Laboratory results taken from patent US20150307603A1 (MODIQUEST B V, published 2015).
Non-standard residues stand in square brackets, D forms with d. No end group written: not given here. Cit = NC(=O)NCCC[C@H](N)C(=O)O

Key:
[1] = target: T1, peptide no. 8 (human histone 2A) (human, also: biotin-labelled); test: ELISA, Ab 0.08 ug/well
T1 construct: also called peptide 8
T1 peptide: AGNAA[Cit]DNKKTR
Procedure: (§1) Biotin and citrulline-containing peptides derived from histone 2A were immobilized on NEUTRAVIDIN®-coated 96-well ELISA plates (0.3 μg/well). CFC-1 and CFC-0 were coated at the same concentration and served as positive and negative controls, respectively, for specific anti-citrulline reactivity and as coating controls. Non-coated wells were used to test for aspecific binding of the antibodies. […] Detection of bound anti-citrulline antibodies was performed by incubating the wells with rabbit anti-human HRP (1:2000) for 1 hour at RT followed by incubation with TMB substrate. The resulting OD (y-axis) is a measure for antibody binding.

[2] = target: T2, peptide no. 3 (human histone 2A) (human, also: biotin-labelled); test: ELISA, Ab 0.08 ug/well
T2 construct: also called peptide 3
T2 peptide: KSRSS[Cit]AGLQFP
Procedure: as §1

[3] = target: T3, CFC-1; test: ELISA, Ab 0.08 ug/well
T3 construct: Positive control for anti-citrulline reactivity; also called cfc1 XG; Cfc1-peptide
Procedure: as §1

[4] = target: T4, peptide no. 5 (human histone 2A) (human, also: biotin-labelled); test: ELISA, Ab 0.08 ug/well
T4 construct: also called peptide 5
T4 peptide: VGRVH[Cit]LLRKGN
Procedure: as §1

[5] = target: T5, peptide no. 4 (human histone 2A) (human, also: biotin-labelled); test: ELISA, Ab 0.08 ug/well
T5 construct: also called peptide 4
T5 peptide: QFPVG[Cit]VHRLLR
Procedure: as §1

[6] = target: T6, peptide no. 12 (human histone 2A) (human, also: biotin-labelled); test: ELISA, Ab 0.08 ug/well
T6 construct: also called peptide 12
T6 peptide: NKLLG[Cit]VTIAQG
Procedure: as §1

[7] = target: T7, peptide no. 6 (human histone 2A) (human, also: biotin-labelled); test: ELISA, Ab 0.08 ug/well
T7 construct: also called peptide 6
T7 peptide: VHRLL[Cit]KGNYSE
Procedure: as §1

[8] = target: T8, peptide no. 2 (human histone 2A) (human, also: biotin-labelled); test: ELISA, Ab 0.08 ug/well
T8 construct: also called peptide 2
T8 peptide: AKAKS[Cit]SSRAGL
Procedure: as §1

[9] = target: T9, peptide no. 9 (human histone 2A) (human, also: biotin-labelled); test: ELISA, Ab 0.08 ug/well
T9 construct: also called peptide 9
T9 peptide: DNKKT[Cit]IIPRHL
Procedure: as §1

[10] = target: T10, peptide no. 1 (human histone 2A) (human, also: biotin-labelled); test: ELISA, Ab 0.08 ug/well
T10 construct: also called peptide 1; AAASGXGKQGGK
T10 peptide: AAASG[Cit]GKQGGK
Procedure: as §1

[11] = target: T11, peptide no. 11 (human histone 2A) (human, also: biotin-labelled); test: ELISA, Ab 0.08 ug/well
T11 construct: also called peptide 11
T11 peptide: LQLAI[Cit]NDEELN
Procedure: as §1

[12] = target: T12, human recombinant histone 2B (human); test: ELISA, Ab 2 ug/well
T12 construct: Non-deiminated; also called H2B
From the text: (§2) The resulting OD (y-axis) is a measure for antibody binding. H1-recombinant histone 1; H1/p2-huPAD2 recombinant histone 1; H1/p4-huPAD4 recombinant histone 1, and so forth (x-axis).

[13] = target: T13, human recombinant histone 2A (human); test: ELISA, Ab 2 ug/well
T13 construct: Non-deiminated; also called H2A
From the text: as §2

[14] = target: T3, CFC-1; test: ELISA, Ab 2 ug/well
From the text: as §2

[15] = target: human recombinant histone 4 (human, UniProt P62805 2-103); test: ELISA, Ab 2 ug/well
From the text: as §2

[16] = target: T14, huPAD2-deiminated human recombinant histone 2B (human); test: ELISA, Ab 2 ug/well
T14 construct: also called H2B/p2
From the text: as §2

[17] = target: T15, huPAD2-deiminated human recombinant histone 3 (human); test: ELISA, Ab 2 ug/well
T15 construct: also called H3/p2; histone 3/p2
From the text: as §2

[18] = target: T16, huPAD4-deiminated human recombinant histone 2A (human); test: ELISA, Ab 2 ug/well
T16 construct: also called H2A/p4; histone 2A/p4
From the text: as §2

[19] = target: T17, huPAD2-deiminated human recombinant histone 2A (human); test: ELISA, Ab 2 ug/well
T17 construct: also called H2A/p2; histone 2A/p2
From the text: as §2

[20] = target: T18, huPAD4-deiminated human recombinant histone 2B (human); test: ELISA, Ab 2 ug/well
T18 construct: also called H2B/p4
From the text: as §2

[21] = target: T19, huPAD4-deiminated human recombinant histone 3 (human); test: ELISA, Ab 2 ug/well
T19 construct: also called H3/p4
From the text: as §2

[22] = target: T2, peptide no. 3 (human histone 2A); test: ELISA, Ab 10 ug/well
Procedure: as §1

[23] = target: T5, peptide no. 4 (human histone 2A); test: ELISA, Ab 10 ug/well
Procedure: as §1

[24] = target: T6, peptide no. 12 (human histone 2A); test: ELISA, Ab 10 ug/well
Procedure: as §1

[25] = target: T7, peptide no. 6 (human histone 2A); test: ELISA, Ab 10 ug/well
Procedure: as §1

[26] = target: T8, peptide no. 2 (human histone 2A); test: ELISA, Ab 10 ug/well
Procedure: as §1

[27] = target: T20, peptide no. 10 (human histone 2A) (human, also: biotin-labelled); test: ELISA, Ab 10 ug/well
T20 construct: also called peptide 10
T20 peptide: TRIIP[Cit]HLQLAI
Procedure: as §1

[28] = target: T9, peptide no. 9 (human histone 2A); test: ELISA, Ab 10 ug/well
Procedure: as §1

[29] = target: T11, peptide no. 11 (human histone 2A); test: ELISA, Ab 10 ug/well
Procedure: as §1

B1: RhmAb2.102 (antibody, human IgG1, lambda)
heavy: not shown
light: QSVLTQPPSMSAAPGQKVTISCSGSSSNIGNNYVSWYQQVPGTAPKLLIYDDNKRPSGIPGRFSGSKSATSATLGITGLQAGDEADYYCGSWDDNLSVVLFGGGTKLTVLGQPKAAPSVTLFPPSSEELQANKATLVCLISDFYPGAVTVAWKADSSPVKAGVETTTPSKQSNNKYAASSYLSLTPEQWKSHRSYSCQVTHEGSTVEKTVAPTECS
notes: Human IgG1 lambda; also called Rhm2.102
OD [1]: 0.06 OD450
OD [2]: 0.091 OD450
OD [3]: 2.66 OD450
OD [4]: 0.066 OD450
OD [5]: 0.192 OD450
OD [6]: 0.06 OD450
OD [7]: 0.123 OD450
OD [8]: 0.086 OD450
OD [9]: 0.06 OD450
OD [10]: 2.04 OD450
OD [11]: 0.064 OD450
OD [12]: 0.076 OD450
OD [13]: 0.115 OD450
OD [14]: 3.38 OD450
OD [15]: 0.208 OD450
OD [16]: 0.086 OD450
OD [17]: 1.94 OD450
OD [18]: 3.13 OD450
OD [19]: 3.18 OD450
OD [20]: 0.069 OD450
OD [21]: 0.439 OD450
OD [22]: 0.619 OD450
OD [23]: 2.06 OD450
OD [24]: 0.083 OD450
OD [25]: 1.41 OD450
OD [26]: 0.552 OD450
OD [27]: 0.091 OD450
OD [28]: 0.09 OD450
OD [29]: 0.088 OD450
